Measured values from publication PMC6778522.

Target: PRC2 catalytic core (EZH2-EED-SUZ12 VEFS) (UniProt Q15910;O75530;Q15022 1-746;1-441;545-726)
Experiment: competition

PRC2 catalytic core (EZH2-EED-SUZ12 VEFS), sequence (Q15910 whole entry, chain 1 of 3): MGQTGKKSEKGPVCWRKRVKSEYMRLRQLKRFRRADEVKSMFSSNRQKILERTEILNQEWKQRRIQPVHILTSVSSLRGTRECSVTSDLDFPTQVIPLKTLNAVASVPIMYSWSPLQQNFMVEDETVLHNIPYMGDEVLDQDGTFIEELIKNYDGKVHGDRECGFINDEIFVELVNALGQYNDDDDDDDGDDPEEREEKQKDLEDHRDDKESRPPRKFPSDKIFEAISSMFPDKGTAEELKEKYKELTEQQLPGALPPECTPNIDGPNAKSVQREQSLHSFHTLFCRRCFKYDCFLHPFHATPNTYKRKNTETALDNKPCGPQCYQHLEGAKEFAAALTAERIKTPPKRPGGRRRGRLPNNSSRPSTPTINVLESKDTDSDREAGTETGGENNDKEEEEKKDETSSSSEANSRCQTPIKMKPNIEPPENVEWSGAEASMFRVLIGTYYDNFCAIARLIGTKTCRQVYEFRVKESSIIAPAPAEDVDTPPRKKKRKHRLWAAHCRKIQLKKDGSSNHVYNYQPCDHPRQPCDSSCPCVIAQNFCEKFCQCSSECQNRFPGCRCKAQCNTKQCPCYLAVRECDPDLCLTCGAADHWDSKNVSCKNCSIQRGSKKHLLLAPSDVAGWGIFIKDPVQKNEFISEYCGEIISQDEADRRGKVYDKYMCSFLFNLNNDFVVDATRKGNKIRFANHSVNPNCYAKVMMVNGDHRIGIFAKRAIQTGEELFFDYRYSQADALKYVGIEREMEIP
PRC2 catalytic core (EZH2-EED-SUZ12 VEFS), sequence (O75530 whole entry, chain 2 of 3): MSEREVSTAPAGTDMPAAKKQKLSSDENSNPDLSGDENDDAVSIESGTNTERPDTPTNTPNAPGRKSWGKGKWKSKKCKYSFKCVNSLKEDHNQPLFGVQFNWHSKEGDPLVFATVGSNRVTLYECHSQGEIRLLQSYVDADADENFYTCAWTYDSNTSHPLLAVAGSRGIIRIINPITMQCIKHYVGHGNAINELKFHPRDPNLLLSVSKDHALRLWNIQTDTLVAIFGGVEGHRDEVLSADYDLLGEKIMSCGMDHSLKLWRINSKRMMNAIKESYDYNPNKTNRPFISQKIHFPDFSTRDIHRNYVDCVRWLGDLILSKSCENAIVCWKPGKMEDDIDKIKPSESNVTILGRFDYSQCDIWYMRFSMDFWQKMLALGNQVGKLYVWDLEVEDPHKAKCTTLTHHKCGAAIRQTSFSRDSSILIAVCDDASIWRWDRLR
PRC2 catalytic core (EZH2-EED-SUZ12 VEFS), sequence (Q15022 545-726, chain 3 of 3): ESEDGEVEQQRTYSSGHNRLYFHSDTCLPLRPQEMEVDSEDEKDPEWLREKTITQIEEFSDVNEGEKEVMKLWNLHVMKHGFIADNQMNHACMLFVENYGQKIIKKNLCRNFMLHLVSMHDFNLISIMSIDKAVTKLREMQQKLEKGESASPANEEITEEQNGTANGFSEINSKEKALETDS

CGGGGGUGGGGGGUGGGGGUGGGU (structured_RNA) [PIM1 G4 RNA competitor]: binds.
